Data taken from US20150344570A1 (published 2015).

T1: FcγRIIb extracellular domain with C-terminal His tag (human, UniProt P31994 43-217)
T1 construct: extracellular domain; Soluble receptor used as analyte in Biacore; also called FcgRIIb; CD32B
T1 sequence (looked up): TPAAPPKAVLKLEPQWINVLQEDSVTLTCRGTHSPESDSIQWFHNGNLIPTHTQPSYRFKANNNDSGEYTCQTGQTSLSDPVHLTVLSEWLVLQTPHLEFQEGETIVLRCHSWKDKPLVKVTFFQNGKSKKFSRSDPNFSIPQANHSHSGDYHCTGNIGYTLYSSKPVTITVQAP

B1: GpH7-A5/GpH7-B3 variant V266_15Y/GpL16-k0 (antibody, human IgG1, kappa)
heavy 1: not shown
heavy 2: not shown
light: DIVMTQSPLSLPVTPGEPASISCQASESLVHSNRNTYLHWYLQKPGQSPQLLIYKVSNRFSGVPDRFSGSGSGTDFTLKISRVEAEDVGVYYCSQNTHVPPTFGQGTKVEIERTVAAPSVFIFPPSDEQLKSGTASVVCLLNNFYPREAKVQWKVDNALQSGNSQESVTEQDSKDSTYSLSSTLTLSKADYEKHKVYACEVTHQGLSSPVTKSFNRGEC
notes: Heterodimerized anti-glypican-3 IgG1; mutation in the GpH7-B3 chain only; also called He Ab V266Y
B2: GpH7-A5/GpH7-B3 variant S267_16H/GpL16-k0 (antibody, human IgG1, kappa)
heavy 1: not shown
heavy 2: not shown
light: B1 light
notes: Heterodimerized anti-glypican-3 IgG1; mutation in the GpH7-B3 chain only; also called He Ab S267H
B3: GpH7-A5/GpH7-B3 variant H268_08L/GpL16-k0 (antibody, human IgG1, kappa)
heavy 1: not shown
heavy 2: not shown
light: B1 light
notes: Heterodimerized anti-glypican-3 IgG1; mutation in the GpH7-B3 chain only; also called He Ab H268L
B4: GpH7-A5/GpH7-B3 variant V266_16H/GpL16-k0 (antibody, human IgG1, kappa)
heavy 1: not shown
heavy 2: not shown
light: B1 light
notes: Heterodimerized anti-glypican-3 IgG1; mutation in the GpH7-B3 chain only; also called He Ab V266H
B5: GpH7-A5/GpH7-B3 variant S267_04F/GpL16-k0 (antibody, human IgG1, kappa)
heavy 1: not shown
heavy 2: not shown
light: B1 light
notes: Heterodimerized anti-glypican-3 IgG1; mutation in the GpH7-B3 chain only; also called He Ab S267F
B6: GpH7-A5/GpH7-B3 variant E269_07I/GpL16-k0 (antibody, human IgG1, kappa)
heavy 1: not shown
heavy 2: not shown
light: B1 light
notes: Heterodimerized anti-glypican-3 IgG1; mutation in the GpH7-B3 chain only; also called He Ab E269I
B7: GpH7-A5/GpH7-B3 variant S267_15Y/GpL16-k0 (antibody, human IgG1, kappa)
heavy 1: not shown
heavy 2: not shown
light: B1 light
notes: Heterodimerized anti-glypican-3 IgG1; mutation in the GpH7-B3 chain only; also called He Ab S267Y
B8: GpH7-A5/GpH7-B3 variant V266_18N/GpL16-k0 (antibody, human IgG1, kappa)
heavy 1: not shown
heavy 2: not shown
light: B1 light
notes: Heterodimerized anti-glypican-3 IgG1; mutation in the GpH7-B3 chain only; also called He Ab V266N
B9: GpH7-A5/GpH7-B3 variant E269_18N/GpL16-k0 (antibody, human IgG1, kappa)
heavy 1: not shown
heavy 2: not shown
light: B1 light
notes: Heterodimerized anti-glypican-3 IgG1; mutation in the GpH7-B3 chain only; also called He Ab E269N
B10: GpH7-A5/GpH7-B3 variant H268_07I/GpL16-k0 (antibody, human IgG1, kappa)
heavy 1: not shown
heavy 2: not shown
light: B1 light
notes: Heterodimerized anti-glypican-3 IgG1; mutation in the GpH7-B3 chain only; also called He Ab H268I
B11: GpH7-A5/GpH7-B3 variant S267_05P/GpL16-k0 (antibody, human IgG1, kappa)
heavy 1: not shown
heavy 2: not shown
light: B1 light
notes: Heterodimerized anti-glypican-3 IgG1; mutation in the GpH7-B3 chain only; also called He Ab S267P
B12: GpH7-A5/GpH7-B3 variant S267_11K/GpL16-k0 (antibody, human IgG1, kappa)
heavy 1: not shown
heavy 2: not shown
light: B1 light
notes: Heterodimerized anti-glypican-3 IgG1; mutation in the GpH7-B3 chain only; also called He Ab S267K
B13: GpH7-A5/GpH7-B3 variant V266_20W/GpL16-k0 (antibody, human IgG1, kappa)
heavy 1: not shown
heavy 2: not shown
light: B1 light
notes: Heterodimerized anti-glypican-3 IgG1; mutation in the GpH7-B3 chain only; also called He Ab V266W
B14: GpH7-A5/GpH7-B3 variant E269_06M/GpL16-k0 (antibody, human IgG1, kappa)
heavy 1: not shown
heavy 2: not shown
light: B1 light
notes: Heterodimerized anti-glypican-3 IgG1; mutation in the GpH7-B3 chain only; also called He Ab E269M
B15: GpH7-A5/GpH7-B3 variant E269_16H/GpL16-k0 (antibody, human IgG1, kappa)
heavy 1: not shown
heavy 2: not shown
light: B1 light
notes: Heterodimerized anti-glypican-3 IgG1; mutation in the GpH7-B3 chain only; also called He Ab E269H
B16: GpH7-A5/GpH7-B3 variant E269_12R/GpL16-k0 (antibody, human IgG1, kappa)
heavy 1: not shown
heavy 2: not shown
light: B1 light
notes: Heterodimerized anti-glypican-3 IgG1; mutation in the GpH7-B3 chain only; also called He Ab E269R
B17: GpH7-A5/GpH7-B3 variant S267_18N/GpL16-k0 (antibody, human IgG1, kappa)
heavy 1: not shown
heavy 2: not shown
light: B1 light
notes: Heterodimerized anti-glypican-3 IgG1; mutation in the GpH7-B3 chain only; also called He Ab S267N
B18: GpH7-A5/GpH7-B3 variant E269_14T/GpL16-k0 (antibody, human IgG1, kappa)
heavy 1: not shown
heavy 2: not shown
light: B1 light
notes: Heterodimerized anti-glypican-3 IgG1; mutation in the GpH7-B3 chain only; also called He Ab E269T

Biological target: T2, FcγRIa extracellular domain with C-terminal His tag (human, UniProt P12314 16-292)
T2 construct: extracellular domain; Soluble receptor used as analyte in Biacore; also called FcgRI; FcgRIa
Assay: SPR Biacore, antibody captured on antigen-peptide chip, FcγR as analyte

T2 sequence (P12314 16-292): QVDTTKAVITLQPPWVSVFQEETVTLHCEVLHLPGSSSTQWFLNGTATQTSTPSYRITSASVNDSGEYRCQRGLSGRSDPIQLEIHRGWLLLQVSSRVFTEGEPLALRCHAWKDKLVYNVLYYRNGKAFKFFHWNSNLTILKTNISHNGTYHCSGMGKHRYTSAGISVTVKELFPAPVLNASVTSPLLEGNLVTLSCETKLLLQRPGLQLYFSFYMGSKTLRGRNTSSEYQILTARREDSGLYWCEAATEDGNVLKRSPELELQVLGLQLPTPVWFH

| He/Con_1a | Binder |
| --- | --- |
| 93.3 relative, GpH7-A5/GpH7-B3/GpL16-k0 = 100 | B1 |
| 100 relative, GpH7-A5/GpH7-B3/GpL16-k0 = 100 | B2 |
| 107 relative, GpH7-A5/GpH7-B3/GpL16-k0 = 100 | B3 |
| 89.1 relative, GpH7-A5/GpH7-B3/GpL16-k0 = 100 | B4 |
| 97.7 relative, GpH7-A5/GpH7-B3/GpL16-k0 = 100 | B5 |
| 103 relative, GpH7-A5/GpH7-B3/GpL16-k0 = 100 | B6 |
| 94.2 relative, GpH7-A5/GpH7-B3/GpL16-k0 = 100 | B7 |
| 99.5 relative, GpH7-A5/GpH7-B3/GpL16-k0 = 100 | B8 |
| 102 relative, GpH7-A5/GpH7-B3/GpL16-k0 = 100 | B9 |
| 108 relative, GpH7-A5/GpH7-B3/GpL16-k0 = 100 | B10 |
| 91.8 relative, GpH7-A5/GpH7-B3/GpL16-k0 = 100 | B11 |
| 93.3 relative, GpH7-A5/GpH7-B3/GpL16-k0 = 100 | B12 |
| 91.4 relative, GpH7-A5/GpH7-B3/GpL16-k0 = 100 | B13 |
| 104 relative, GpH7-A5/GpH7-B3/GpL16-k0 = 100 | B14 |
| 106 relative, GpH7-A5/GpH7-B3/GpL16-k0 = 100 | B15 |
| 97.1 relative, GpH7-A5/GpH7-B3/GpL16-k0 = 100 | B16 |
| 102 relative, GpH7-A5/GpH7-B3/GpL16-k0 = 100 | B17 |
| 106 relative, GpH7-A5/GpH7-B3/GpL16-k0 = 100 | B18 |

Biological target: T1, FcγRIIb extracellular domain with …
Assay: as above

| He/Con_2b | Binder |
| --- | --- |
| 49.4 relative, GpH7-A5/GpH7-B3/GpL16-k0 = 100 | B1 |
| 65.9 relative, GpH7-A5/GpH7-B3/GpL16-k0 = 100 | B2 |
| 67.8 relative, GpH7-A5/GpH7-B3/GpL16-k0 = 100 | B3 |
| 57.2 relative, GpH7-A5/GpH7-B3/GpL16-k0 = 100 | B4 |
| 48 relative, GpH7-A5/GpH7-B3/GpL16-k0 = 100 | B5 |
| 43.9 relative, GpH7-A5/GpH7-B3/GpL16-k0 = 100 | B6 |
| 37.9 relative, GpH7-A5/GpH7-B3/GpL16-k0 = 100 | B7 |
| 69.7 relative, GpH7-A5/GpH7-B3/GpL16-k0 = 100 | B8 |
| 44.8 relative, GpH7-A5/GpH7-B3/GpL16-k0 = 100 | B9 |
| 88.9 relative, GpH7-A5/GpH7-B3/GpL16-k0 = 100 | B10 |
| 31.5 relative, GpH7-A5/GpH7-B3/GpL16-k0 = 100 | B11 |
| 12.2 relative, GpH7-A5/GpH7-B3/GpL16-k0 = 100 | B12 |
| 71.9 relative, GpH7-A5/GpH7-B3/GpL16-k0 = 100 | B13 |
| 46.7 relative, GpH7-A5/GpH7-B3/GpL16-k0 = 100 | B14 |
| 38.5 relative, GpH7-A5/GpH7-B3/GpL16-k0 = 100 | B15 |
| 25.2 relative, GpH7-A5/GpH7-B3/GpL16-k0 = 100 | B16 |
| 47.7 relative, GpH7-A5/GpH7-B3/GpL16-k0 = 100 | B17 |
| 50.6 relative, GpH7-A5/GpH7-B3/GpL16-k0 = 100 | B18 |
